Patent US20180155451A1 (published 2018)
Residue numbers refer to the chain shown, from its start. Numbers in names are those of the source.

T1: FcgRIIa R (human, UniProt P12318 34-217)
T1 construct: extracellular domain; also called FcγRIIa R; FcγRIIa type R; not shown: His tag attached to the C terminus
T1 sequence (looked up): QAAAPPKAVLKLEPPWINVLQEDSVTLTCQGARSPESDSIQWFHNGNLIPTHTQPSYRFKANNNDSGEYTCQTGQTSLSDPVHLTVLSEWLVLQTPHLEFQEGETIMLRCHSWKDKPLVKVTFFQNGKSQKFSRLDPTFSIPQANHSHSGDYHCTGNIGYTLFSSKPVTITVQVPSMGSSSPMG

T2: FcgRIIb (human, UniProt P31994 43-217)
T2 construct: extracellular domain; also called FcγRIIb; not shown: His tag attached to the C terminus
T2 sequence (looked up): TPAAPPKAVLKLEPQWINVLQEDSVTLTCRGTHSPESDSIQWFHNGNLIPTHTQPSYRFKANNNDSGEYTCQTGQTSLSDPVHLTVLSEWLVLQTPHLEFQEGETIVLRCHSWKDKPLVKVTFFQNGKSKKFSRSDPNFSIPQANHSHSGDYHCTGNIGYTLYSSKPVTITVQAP

T3: FcgRIIa H (human, UniProt P12318 34-217)
T3 construct: extracellular domain; also called FcγRIIa H; FcγRIIa type H; not shown: His tag attached to the C terminus
T3 sequence (looked up): T1 sequence (looked up) with R134H

T4: FcγRIIb (human, UniProt P31994 43-217)
T4 construct: extracellular domain; also called FcgRIIb; 2b; not shown: His tag at the C terminus
T4 sequence (looked up): T2 sequence (looked up)

B1: GpH7-A5/GpH7-B3 variant K326_02A/GpL16-k0 (antibody, human IgG1, kappa)
heavy 1: not shown
heavy 2: not shown
light: DIVMTQSPLSLPVTPGEPASISCQASESLVHSNRNTYLHWYLQKPGQSPQLLIYKVSNRFSGVPDRFSGSGSGTDFTLKISRVEAEDVGVYYCSQNTHVPPTFGQGTKVEIERTVAAPSVFIFPPSDEQLKSGTASVVCLLNNFYPREAKVQWKVDNALQSGNSQESVTEQDSKDSTYSLSSTLTLSKADYEKHKVYACEVTHQGLSSPVTKSFNRGEC
notes: heterodimerized IgG1; alteration in the GpH7-B3 H chain only; also called He Ab
B2: GpH7-A5/GpH7-B3 variant H268_13S/GpL16-k0 (antibody, human IgG1, kappa)
heavy 1: not shown
heavy 2: not shown
light: B1 light
notes: as for B1
B3: GpH7-A5/GpH7-B3 variant H268_10E/GpL16-k0 (antibody, human IgG1, kappa)
heavy 1: not shown
heavy 2: not shown
light: B1 light
notes: as for B1
B4: GpH7-A5/GpH7-B3 variant K326_08L/GpL16-k0 (antibody, human IgG1, kappa)
heavy 1: not shown
heavy 2: not shown
light: B1 light
notes: as for B1
B5: GpH7-A5/GpH7-B3 variant K326_04F/GpL16-k0 (antibody, human IgG1, kappa)
heavy 1: not shown
heavy 2: not shown
light: B1 light
notes: as for B1
B6: GpH7-A5/GpH7-B3 variant K326_03V/GpL16-k0 (antibody, human IgG1, kappa)
heavy 1: not shown
heavy 2: not shown
light: B1 light
notes: as for B1
B7: GpH7-A5/GpH7-B3 variant H268_18N/GpL16-k0 (antibody, human IgG1, kappa)
heavy 1: not shown
heavy 2: not shown
light: B1 light
notes: as for B1
B8: GpH7-A5/GpH7-B3 variant K326_07I/GpL16-k0 (antibody, human IgG1, kappa)
heavy 1: not shown
heavy 2: not shown
light: B1 light
notes: as for B1
B9: GpH7-A5/GpH7-B3 variant K326_06M/GpL16-k0 (antibody, human IgG1, kappa)
heavy 1: not shown
heavy 2: not shown
light: B1 light
notes: as for B1
B10: H240-Kn061 (Y235A)/H240-Hl071/L73-k0 (antibody, human IgG1, kappa)
heavy 1: QDQLVQSGAEVKKPGASVKVSCKASGFNIKDTYIQWVRQAPGQGLEWMGRIDPLRKQTKYREKFEGRVTITADTSTNTAYMELSSLRSEDTAVYYCVRSGREFDYWGQGTLVTVSSASTKGPSVFPLAPSSKSTSGGTAALGCLVKDYFPEPVTVSWNSGALTSGVHTFPAVLQSSGLYSLSSVVTVPSSSLGTQTYICNVNHKPSNTKVDKKVEPKSCDKTHTCPPCPAPEYAWGPSVFLFPPKPKDTLMISRTPEVTCVVVDVSDEDPEVKFNWYVDGVEVHNAKTKPREEQYNATYRVVSVLTVLHQDWLNGKEYKCKVSNKALPAPIEKTISKAKGQPREPQVCTLPPSRDELTKNQVSLWCLVKGFYPSDIAVEWESNGQPENNYKTTPPVLDSDGSFFLYSKLTVDKSRWQQGNVFSCSVMHEALHNHYTQKSLSLSP
heavy 2: QDQLVQSGAEVKKPGASVKVSCKASGFNIKDTYIQWVRQAPGQGLEWMGRIDPLRKQTKYREKFEGRVTITADTSTNTAYMELSSLRSEDTAVYYCVRSGREFDYWGQGTLVTVSSASTKGPSVFPLAPSSKSTSGGTAALGCLVKDYFPEPVTVSWNSGALTSGVHTFPAVLQSSGLYSLSSVVTVPSSSLGTQTYICNVNHKPSNTKVDKKVEPKSCDKTHTCPPCPAPELLGGPSVFLFPPKPKDTLMISRTPEVTCVVVDVSHEDPEVKFNWYVDGVEVHNAKTKPREEQYNSTYRVVSVLTVLHQDWLNGKEYKCKVSNDALPMPIEETISKAKGQPREPQVYTLPPSRCELTKNQVSLSCAVKGFYPSDIAVEWESNGQPENNYKTTPPVLDSDGSFFLVSKLTVDKSRWQQGNVFSCSVMHEALHNHYTQKSLSLSP
light: DIQMTQSPSSLSASVGDRVTITCRASQDIHKYIAWYQQKPGQAPRLLIQYTSTLQPGVPSRFSGSGSGTDYTFTISSLQPEDIATYYCLQYEQLRTFGGGTKVEIKRTVAAPSVFIFPPSDEQLKSGTASVVCLLNNFYPREAKVQWKVDNALQSGNSQESVTEQDSKDSTYSLSSTLTLSKADYEKHKVYACEVTHQGLSSPVTKSFNRGEC
B11: H240-Kn061 (Y235P)/H240-Hl071/L73-k0 (antibody, human IgG1, kappa)
heavy 1: B10 heavy 1 with A234P
heavy 2: B10 heavy 2
light: B10 light
B12: H240-Kn061 (Y235I)/H240-Hl071/L73-k0 (antibody, human IgG1, kappa)
heavy 1: B10 heavy 1 with A234I
heavy 2: B10 heavy 2
light: B10 light
B13: H240-Kn061 (Y234E)/H240-Hl071/L73-k0 (antibody, human IgG1, kappa)
heavy 1: B10 heavy 1 with Y233E, A234Y
heavy 2: B10 heavy 2
light: B10 light
B14: H240-Kn061 (Y235V)/H240-Hl071/L73-k0 (antibody, human IgG1, kappa)
heavy 1: B10 heavy 1 with A234V
heavy 2: B10 heavy 2
light: B10 light
B15: H240-Kn061 (Y235Q)/H240-Hl071/L73-k0 (antibody, human IgG1, kappa)
heavy 1: B10 heavy 1 with A234Q
heavy 2: B10 heavy 2
light: B10 light

target: T5, FcγRIa (human, UniProt P12314 16-292); test: SPR (Biacore); He/Con_1a (FcγRIa) divided by He/Con_2b (FcγRIIb)
T5 construct: extracellular domain; also called FcgRI; 1a; not shown: His tag at the C terminus
T5 sequence (P12314 16-292): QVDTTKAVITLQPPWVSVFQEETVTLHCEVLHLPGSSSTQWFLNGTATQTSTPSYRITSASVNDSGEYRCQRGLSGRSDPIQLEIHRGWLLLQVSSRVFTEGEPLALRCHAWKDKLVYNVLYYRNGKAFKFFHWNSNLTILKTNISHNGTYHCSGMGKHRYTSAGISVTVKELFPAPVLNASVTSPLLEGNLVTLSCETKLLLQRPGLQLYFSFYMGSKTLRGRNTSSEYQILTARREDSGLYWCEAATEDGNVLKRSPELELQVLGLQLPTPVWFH

Row | Binder | Ia/IIb He_1a/2b [ratio]
1 | B1 | 0.73
2 | B2 | 0.68
3 | B3 | 0.48
4 | B4 | 0.57
5 | B5 | 0.66
6 | B6 | 0.58
7 | B7 | 0.69
8 | B8 | 0.51
9 | B9 | 0.62

target: T1, FcgRIIa R; test: SPR (Biacore); KD of H240-Kn061/H240-Hl071/L73-k0 divided by KD of the variant
Procedure: (§1) The antibodies were assessed for the binding to each FcgR. […] The resultant value was defined as relative KD, and used as an assessment indicator.
(§2) Analysis of interaction between obj ective antibody and the FcγR was carried out using Biacore T100 (GE Healthcare), Biacore T200, Biacore A100, and Biacore 4000. HBS-EP+ (GE Healthcare) was used as the running buffer, and the measurement temperature was set to 25° C. Chips produced by immobilizing the antigen peptide by the amine coupling method to a Series S sensor Chip CM5 (GE Healthcare), chips produced by allowing preliminarily biotinylated antigen peptides to interact with and immobilize onto a Series S Sensor Chip SA (certified) (GE Healthcare), chips produced by immobilizing Protein L (ACTIGEN, BioVision) to Series S Sencor Chip CM5 (GE Healthcare), or chips produced by immobilizing Protein A/G (Thermo Scientific) to Series S Sencor Chip CM5 (GE Healthcare) were used. Antibodies of interest were captured onto these chips, and allowed to interact to each FcγR diluted with running buffer.

Row | Binder | Relative KD
10 | B10 | 0.5
11 | B11 | 0.6
12 | B12 | 0.7
13 | B13 | 1.4
14 | B14 | 0.5
15 | B15 | 0.8

target: T6, FcgRIIIa V (human, UniProt P08637 17-208); test: as above
T6 construct: extracellular domain; also called FcγRIIIa V; not shown: His tag attached to the C terminus
T6 sequence (P08637 17-208 F176V limits assumed): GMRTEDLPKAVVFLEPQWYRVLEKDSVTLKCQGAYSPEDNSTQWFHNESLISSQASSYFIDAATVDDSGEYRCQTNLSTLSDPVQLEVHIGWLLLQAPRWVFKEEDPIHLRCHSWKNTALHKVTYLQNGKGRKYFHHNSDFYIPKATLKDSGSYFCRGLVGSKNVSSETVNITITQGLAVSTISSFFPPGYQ
Procedure: as §1, §2

Row | Binder | Relative KD
16 | B10 | 1.3
17 | B11 | 1.5
18 | B12 | 1.6
19 | B13 | 1.6
20 | B14 | 1.3
21 | B15 | 1.3

target: T7, FcgRIIIa F (human, UniProt P08637 17-208); test: as above
T7 construct: extracellular domain; also called FcγRIIIa F; 3aF; not shown: His tag attached to the C terminus
T7 sequence (P08637 17-208): as the sequence (P08637 17-208 F176V limits assumed) above, with V160F counted along it
Procedure: as §1, §2

Row | Binder | Relative KD
22 | B10 | 1.2
23 | B11 | 1.1
24 | B12 | 1.3
25 | B13 | 1.9
26 | B14 | 1.2
27 | B15 | 1

target: T2, FcgRIIb; test: as above
Procedure: as §1, §2

Row | Binder | Relative KD
28 | B10 | 0.2
29 | B11 | 0.5
30 | B12 | 0.2
31 | B13 | 0.5
32 | B14 | 0.2
33 | B15 | 0.1

target: T3, FcgRIIa H; test: as above
Procedure: as §1, §2

Row | Binder | Relative KD
34 | B10 | 0.5
35 | B11 | 0.4
36 | B12 | 0.4
37 | B13 | 0.7
38 | B14 | 0.4
39 | B15 | 0.4

target: T6, FcgRIIIa V; test: as above; remark: another data set of the same source
Procedure: as §1, §2

Row | Binder | Relative KD
40 | B10 | 1.3
41 | B11 | 1.5
42 | B12 | 1.6
43 | B13 | 1.6
44 | B14 | 1.3
45 | B15 | 1.3

target: T7, FcgRIIIa F; test: as above; remark: another data set of the same source
Procedure: as §1, §2

Row | Binder | Relative KD
46 | B10 | 1.2
47 | B11 | 1.1
48 | B12 | 1.3
49 | B13 | 1.9
50 | B14 | 1.2
51 | B15 | 1

target: T2, FcgRIIb; test: as above; remark: another data set of the same source
Procedure: as §1, §2

Row | Binder | Relative KD
52 | B10 | 0.2
53 | B11 | 0.5
54 | B12 | 0.2
55 | B13 | 0.5
56 | B14 | 0.2
57 | B15 | 0.1

target: T5, FcγRIa; test: SPR (Biacore), antibody captured, FcγR as analyte; binding as % of GpH7-A5/GpH7-B3/GpL16-k0

Row | Binder | He/Con_1a
58 | B1 | 102 % of control
59 | B2 | 109 % of control
60 | B3 | 111 % of control
61 | B4 | 100 % of control
62 | B5 | 102 % of control
63 | B6 | 102 % of control
64 | B7 | 108 % of control
65 | B8 | 101 % of control
66 | B9 | 102 % of control

target: T4, FcγRIIb; test: as above

Row | Binder | He/Con_2b
67 | B1 | 139 % of control
68 | B2 | 160 % of control
69 | B3 | 230 % of control
70 | B4 | 177 % of control
71 | B5 | 155 % of control
72 | B6 | 175 % of control
73 | B7 | 156 % of control
74 | B8 | 199 % of control
75 | B9 | 165 % of control
